The record followed here is patent US20210253731A1 (BETH ISRAEL DEACONESS MEDICAL CENTER, published 2021).

In test [1] the target is T1, human CD39 (human, UniProt P49961 38-478, limits assumed).
T1 construct: Target as named in the general statements on 5F2 and PB1-PB5 specificity; also called hCD39; ectonucleoside triphosphate diphosphohydrolase-1
T1 sequence (looked up): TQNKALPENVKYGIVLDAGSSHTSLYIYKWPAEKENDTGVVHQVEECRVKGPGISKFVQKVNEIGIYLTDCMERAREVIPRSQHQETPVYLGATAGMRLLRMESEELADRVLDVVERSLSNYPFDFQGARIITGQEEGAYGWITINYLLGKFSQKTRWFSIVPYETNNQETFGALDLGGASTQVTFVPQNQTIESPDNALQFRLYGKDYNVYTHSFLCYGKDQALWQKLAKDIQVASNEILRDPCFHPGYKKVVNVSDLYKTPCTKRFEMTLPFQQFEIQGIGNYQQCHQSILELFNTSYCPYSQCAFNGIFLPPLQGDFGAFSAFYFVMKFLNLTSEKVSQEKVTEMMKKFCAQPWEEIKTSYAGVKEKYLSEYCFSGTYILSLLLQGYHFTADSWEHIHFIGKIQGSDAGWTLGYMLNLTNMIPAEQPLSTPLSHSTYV
Briefly: assay not described.

Test [2] concerns the target T2, mouse CD39 (mouse, UniProt P55772 38-478, limits assumed).
T2 construct: Target as named in the general statement on 5F2 specificity; also called mCD39
T2 sequence (looked up): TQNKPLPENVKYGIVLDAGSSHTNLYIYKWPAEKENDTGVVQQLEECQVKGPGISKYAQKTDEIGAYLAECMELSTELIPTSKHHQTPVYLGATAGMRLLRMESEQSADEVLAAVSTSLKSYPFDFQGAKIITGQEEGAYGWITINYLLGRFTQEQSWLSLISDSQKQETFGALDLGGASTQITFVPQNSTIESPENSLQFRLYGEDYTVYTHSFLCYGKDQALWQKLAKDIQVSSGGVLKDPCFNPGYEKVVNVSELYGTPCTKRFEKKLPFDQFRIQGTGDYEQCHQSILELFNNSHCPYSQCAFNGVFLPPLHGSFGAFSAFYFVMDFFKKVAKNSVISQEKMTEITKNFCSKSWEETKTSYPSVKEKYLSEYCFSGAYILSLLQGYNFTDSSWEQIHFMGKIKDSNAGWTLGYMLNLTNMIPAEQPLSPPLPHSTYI
The experiment in a line: assay not described.

B1: murine monoclonal 5F2 (anti-CD39 antibody) (antibody, V domains shown)
VH: EVQLEESGPGLVQPSQRLSITCTISGFSLTSYGIHWVRQSPGKGLEWLGVIWSGGNTDYNAAFISRLSISKDNSKSQVFFKMNSLQVGDTATYYCARNGHGSNIPWFVYWGQGTLVTVST
VL: DIQLTQSPASLSVATGEKVTIRCITSTDVDDDMNWFQQKPGEPPNLLISEGDTLRPGVPSRFSSSGYGTDFVFTIENTLSEDVADYYCLQSDNMPLTFGGGTKLEIK
notes: also called anti-CD39 5F2 antibody; 5F2 mAb
As for B1, the binding result in test [1] and in test [2] was “binds” in each case.

B2: PB4 rabbit monoclonal anti-human CD39 antibody (antibody, V domains shown)
VH: QEQLVESGGGLVQPEGSLTLTCTASGFSFSSSYYMCWVRQAPGKGLEWIGCIYIGSSTTYYATWAKGRFTISKTSSTAVTLQMTGLTAADTATYFCARDQYDDSGNLWGPGTLVTVSS
VL: DVVMTQTPASVSEPVGGTVTIKCQASQSIYSGLAWYQQKPGQPPNLLIYKASNLASGVSSRFKGSRSGTEYTLTISDLECADAATYYCQNWYGISSYGRAFGGGTEVVVKG
notes: Full rabbit heavy and light chains
With B2, the binding result in test [1] is on record as “binds”.
